The values below come from US8003342.

Experiment [1] concerns the target T1, rat brain farnesyl:protein transferase (rat, UniProt Q04631 2-377; Q02293 1-437). As to the kind of experiment: cell-based or functional assay.
Experiment [2] deals with T1, rat brain farnesyl:protein transferase. As to the kind of experiment: cell-based or functional assay. This is another data set of the same source.

As for CVAM, in experiment [1], the “fold decrease of affinity against CVIM, from the concentration required for 50% inhibition” value turned out to be 30 fold.

Regarding CIKS, in experiment [2], the “Concentration for 50% Inhibition” value was determined as 100 µM.
